Data as given in US20210054097A1 (Novo Nordisk, published 2021).
Ends that are not written are not given here.

Key:
[1] = target: T1, human plasma-derived Factor X zymogen (human, UniProt P00742 41-179; P00742 183-488); test: apparent KD fitted from FXa generation assay
T1 construct: Plasma-derived, bought (Haematologic Technologies); also called FX; human FX
Method: The ability of the monovalent anti-FX Nanobody® (Nb) to promote FIXa-mediated FX-activation was determined in the presence of a procoagulant phospholipid membrane according to the principles described by Scheiflinger et al. (2008) J Thromb Haemost, 6:315-322. A Fab of mAb 13F62 (IgG1 isotype, variable sequences identified by SEQ ID NO:6 and 7), also found to bind the activation peptide, were included for comparison. Moreover, anti-FX antibodies as disclosed in U.S. Pat. No. 9,334,331 (J327 and L404-k in said publication), corresponding to the anti-FX arm of ACE910); and more recently in WO2018/021450 (J327 D31H and JYL280 in said publication) and WO2018/098363 (BIIB-12-917 represented by SEQ ID NO:427 and 615 in said publication) are stated to be suitable for use as part of anti-FIX/anti-FX bispecific FVIII mimetic compounds were, furthermore, included for comparison.
Each compound was tested individually in a concentration range from 0-1000 nM, 0-2000 nM, 0-4000 nM or 0-8000 nM by pre-incubation with 1-1.5 nM human plasma-derived FIXa (Haematologic Technologies Inc, USA) and 500 μM 25:75 phosphatidyl serine:phosphatidyl choline phospholipid vesicles (Haematologic Technologies Inc, USA) in assay buffer (50 mM HEPES, 100 mM NaCl, 5 mM CaCl₂, 0.1% (w/v) PEG8000, 1 mg/mL bovine serum albumin, pH 7.3) for 10 minutes. The reaction was initiated by addition of human plasma-derived FX (Haematologic Technologies Inc, USA) to a final concentration of 100 nM and a reaction volume of 50 μL. Following 20 minutes activation at room temperature while agitated (1000 RPM), the reaction was quenched by addition of 25 μL quench buffer (50 mM HEPES, 100 mM NaCl, 60 mM EDTA, 0.1% (w/v) PEG8000, 1 mg/mL bovine serum albumin, pH 7.3). The amount of FXa generated was determined by addition of 25 μL 2 mM S-2765 chromogenic substrate for FXa (Chromogenix, Sweden) and chromogenic substrate conversion was followed by measuring absorbance at 405 nm for 10 minutes in a microplate reader. The observed change in 405 nm absorbance (ΔAbs405/min) was fitted to the quadratic binding equation (eq. 1) to obtain the peak stimulatory activity and EC50.

[2] = target: T1, human plasma-derived Factor X zymogen; test: cell-based or functional assay
[3] = target: T2, FX activation peptide 12-mer SITWKPYDAADL (human); test: peptide ELISA
T2 peptide: SITWKPYDAADL-biotin
Method: (§1) The peptides were C-terminally conjugated to biotin and 50 μL of 1 μg/mL peptide solution was used for immobilization in discrete wells of the microtiter plate which was pre-coated with 1 μg/mL streptavidin. Each well was washed with washing buffer (10 mM Tris, 150 mM NaCl, 2.5 mM CaCl₂, 0.05% Tween 20, pH 8.60) followed by addition of 50 μL of 2 μg/mL FLAG-tagged anti-FX Nanobody® or IgG antibody to be tested. After 1 hour non-bound Nanobody®/antibody was washed off using washing buffer.
(§2) Bound anti-FX activation peptide ligand was detected by first binding a HRP-labelled secondary antibody (for FLAG-tagged Nanobodies: Anti-FLAG mAb M2-Peroxidase (HRP) (Sigma Aldrich, US), for antibody: Fcγ Fragment Specific Peroxidase AffiniPure F(ab′)₂ Fragment Goat Anti-Human IgG (Jackson ImmunoResearch Laboratories, Inc., US), or Peroxidase AffiniPure Goat Anti-Mouse IgG (Jackson ImmunoResearch Laboratories, Inc., US)) for 1 hour, and then adding 100 μL TMB-1 ELISA substrate (Kem-En-Tec Diagnostics, Denmark).

[4] = target: T3, FX activation peptide 12-mer EAPDSITWKPYD (human); test: peptide ELISA
T3 peptide: EAPDSITWKPYD-biotin
Method: as §1, §2

[5] = target: T4, FX activation peptide 12-mer DSITWKPYDAAD (human); test: peptide ELISA
T4 peptide: DSITWKPYDAAD-biotin
Method: as §1, §2

[6] = target: T5, FX activation peptide 12-mer YDAADLDPTENP (human); test: peptide ELISA
T5 peptide: YDAADLDPTENP-biotin
Method: as §1, §2

[7] = target: T6, FX activation peptide 12-mer SSGEAPDSITWK (human); test: peptide ELISA
T6 peptide: SSGEAPDSITWK-biotin
Method: as §1, §2

[8] = target: T7, FX activation peptide 12-mer ADLDPTENPFDL (human); test: peptide ELISA
T7 peptide: ADLDPTENPFDL-biotin
Method: as §1, §2

[9] = target: T8, FX activation peptide 12-mer SSSGEAPDSITW (human); test: peptide ELISA
T8 peptide: SSSGEAPDSITW-biotin
Method: as §1, §2

[10] = target: T9, FX activation peptide 12-mer NPFDLLDFNQTQ (human); test: peptide ELISA
T9 peptide: NPFDLLDFNQTQ-biotin
Method: as §1, §2

[11] = target: T10, FX activation peptide 12-mer WKPYDAADLDPT (human); test: peptide ELISA
T10 peptide: WKPYDAADLDPT-biotin
Method: as §1, §2

[12] = target: T11, FX activation peptide 12-mer ITWKPYDAADLD (human); test: peptide ELISA
T11 peptide: ITWKPYDAADLD-biotin
Method: as §1, §2

[13] = target: T12, FX activation peptide 12-mer GEAPDSITWKPY (human); test: peptide ELISA
T12 peptide: GEAPDSITWKPY-biotin
Method: as §1, §2

[14] = target: T13, FX activation peptide 12-mer PYDAADLDPTEN (human); test: peptide ELISA
T13 peptide: PYDAADLDPTEN-biotin
Method: as §1, §2

[15] = target: T14, FX activation peptide 12-mer LDFNQTQPERGD (human); test: peptide ELISA
T14 peptide: LDFNQTQPERGD-biotin
Method: as §1, §2

[16] = target: T15, FX activation peptide 12-mer SGEAPDSITWKP (human); test: peptide ELISA
T15 peptide: SGEAPDSITWKP-biotin
Method: as §1, §2

[17] = target: T16, FX activation peptide 12-mer FDLLDFNQTQPE (human); test: peptide ELISA
T16 peptide: FDLLDFNQTQPE-biotin
Method: as §1, §2

[18] = target: T17, FX activation peptide 12-mer TQPERGDNNLTR (human); test: peptide ELISA
T17 peptide: TQPERGDNNLTR-biotin
Method: as §1, §2

[19] = target: T18, FX activation peptide 12-mer APDSITWKPYDA (human); test: peptide ELISA
T18 peptide: APDSITWKPYDA-biotin
Method: as §1, §2

[20] = target: T19, FX activation peptide 12-mer LLDFNQTQPERG (human); test: peptide ELISA
T19 peptide: LLDFNQTQPERG-biotin
Method: as §1, §2

[21] = target: T20, FX activation peptide 12-mer FNQTQPERGDNN (human); test: peptide ELISA
T20 peptide: FNQTQPERGDNN-biotin
Method: as §1, §2

[22] = target: T21, FX activation peptide 12-mer PDSITWKPYDAA (human); test: peptide ELISA
T21 peptide: PDSITWKPYDAA-biotin
Method: as §1, §2

[23] = target: T22, FX activation peptide 12-mer DPTENPFDLLDF (human); test: peptide ELISA
T22 peptide: DPTENPFDLLDF-biotin
Method: as §1, §2

[24] = target: T23, FX activation peptide 12-mer ATSSSGEAPDSI (human); test: peptide ELISA
T23 peptide: ATSSSGEAPDSI-biotin
Method: as §1, §2

[25] = target: T24, FX activation peptide 12-mer LDPTENPFDLLD (human); test: peptide ELISA
T24 peptide: LDPTENPFDLLD-biotin
Method: as §1, §2

[26] = target: T25, FX activation peptide 12-mer TWKPYDAADLDP (human); test: peptide ELISA
T25 peptide: TWKPYDAADLDP-biotin
Method: as §1, §2

[27] = target: T26, FX activation peptide 12-mer AADLDPTENPFD (human); test: peptide ELISA
T26 peptide: AADLDPTENPFD-biotin
Method: as §1, §2

[28] = target: T27, FX activation peptide 12-mer ENPFDLLDFNQT (human); test: peptide ELISA
T27 peptide: ENPFDLLDFNQT-biotin
Method: as §1, §2

[29] = target: T28, FX activation peptide 12-mer TENPFDLLDFNQ (human); test: peptide ELISA
T28 peptide: TENPFDLLDFNQ-biotin
Method: as §1, §2

[30] = target: T29, FX activation peptide 12-mer QTQPERGDNNLT (human); test: peptide ELISA
T29 peptide: QTQPERGDNNLT-biotin
Method: as §1, §2

[31] = target: T30, FX activation peptide 12-mer TSSSGEAPDSIT (human); test: peptide ELISA
T30 peptide: TSSSGEAPDSIT-biotin
Method: as §1, §2

[32] = target: T31, FX activation peptide 12-mer DFNQTQPERGDN (human); test: peptide ELISA
T31 peptide: DFNQTQPERGDN-biotin
Method: as §1, §2

[33] = target: T32, FX activation peptide 12-mer DLLDFNQTQPER (human); test: peptide ELISA
T32 peptide: DLLDFNQTQPER-biotin
Method: as §1, §2

[34] = target: T33, FX activation peptide 12-mer KPYDAADLDPTE (human); test: peptide ELISA
T33 peptide: KPYDAADLDPTE-biotin
Method: as §1, §2

[35] = target: T34, FX activation peptide 12-mer QATSSSGEAPDS (human); test: peptide ELISA
T34 peptide: QATSSSGEAPDS-biotin
Method: as §1, §2

[36] = target: T35, FX activation peptide 12-mer PTENPFDLLDFN (human); test: peptide ELISA
T35 peptide: PTENPFDLLDFN-biotin
Method: as §1, §2

[37] = target: T36, FX activation peptide 12-mer DLDPTENPFDLL (human); test: peptide ELISA
T36 peptide: DLDPTENPFDLL-biotin
Method: as §1, §2

[38] = target: T37, FX activation peptide 12-mer DAADLDPTENPF (human); test: peptide ELISA
T37 peptide: DAADLDPTENPF-biotin
Method: as §1, §2

[39] = target: T38, FX activation peptide 12-mer PFDLLDFNQTQP (human); test: peptide ELISA
T38 peptide: PFDLLDFNQTQP-biotin
Method: as §1, §2

[40] = target: T39, FX activation peptide 12-mer AQATSSSGEAPD (human); test: peptide ELISA
T39 peptide: AQATSSSGEAPD-biotin
Method: as §1, §2

human activated Factor X = human activated Factor X (human, UniProt P00742 41-179; P00742 235-488); test: cell-based or functional assay
Chain of human activated Factor X (P00742 41-179, chain 1 of 2): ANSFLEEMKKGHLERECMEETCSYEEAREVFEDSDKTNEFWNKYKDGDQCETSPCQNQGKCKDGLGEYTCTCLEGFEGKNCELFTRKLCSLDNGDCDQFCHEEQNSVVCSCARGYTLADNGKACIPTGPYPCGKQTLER
Chain of human activated Factor X (P00742 235-488, chain 2 of 2): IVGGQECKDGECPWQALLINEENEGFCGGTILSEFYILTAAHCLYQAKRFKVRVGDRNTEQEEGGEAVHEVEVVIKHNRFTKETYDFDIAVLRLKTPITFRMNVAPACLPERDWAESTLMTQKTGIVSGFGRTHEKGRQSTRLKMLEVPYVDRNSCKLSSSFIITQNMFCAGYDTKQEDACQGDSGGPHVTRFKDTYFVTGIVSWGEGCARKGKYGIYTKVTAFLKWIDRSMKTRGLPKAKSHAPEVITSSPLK

T1 sequence (P00742 41-179, chain 1 of 2): as the sequence (P00742 41-179, chain 1 of 2) above
T1 sequence (P00742 183-488, chain 2 of 2): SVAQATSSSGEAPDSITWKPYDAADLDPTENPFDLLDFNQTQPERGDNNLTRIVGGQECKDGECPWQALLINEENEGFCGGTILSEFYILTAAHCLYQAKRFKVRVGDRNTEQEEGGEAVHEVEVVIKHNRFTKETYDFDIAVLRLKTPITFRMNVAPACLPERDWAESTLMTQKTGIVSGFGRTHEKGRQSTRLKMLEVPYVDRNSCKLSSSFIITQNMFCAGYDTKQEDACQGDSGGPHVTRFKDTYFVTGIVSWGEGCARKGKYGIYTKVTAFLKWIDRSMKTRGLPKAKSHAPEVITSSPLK

B1: Fab of mAb 13F62 (Fab, V domains shown)
VH: EVQLVESGGGQVKPGGSLRLSCAASGFTFSTSSIYWVRQAPGKGLEWVSSISSGSSYIFYADSVKGRFTISRDNAKNSLFLQMNSLRAEDTAVYYCVSGYSRLLDYWGQGTLVTVSS
VL: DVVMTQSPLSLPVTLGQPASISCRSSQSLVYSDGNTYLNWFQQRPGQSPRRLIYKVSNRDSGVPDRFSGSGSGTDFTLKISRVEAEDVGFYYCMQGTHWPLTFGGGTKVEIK
notes: Fab of an IgG1 antibody; also called Fab of 13F62
Kd [1]: 3.1 nM | Increase in FX activation (fold) [2]: 1.5 fold

B2: mAb 13F62 (antibody, V domains shown)
VH: B1 VH
VL: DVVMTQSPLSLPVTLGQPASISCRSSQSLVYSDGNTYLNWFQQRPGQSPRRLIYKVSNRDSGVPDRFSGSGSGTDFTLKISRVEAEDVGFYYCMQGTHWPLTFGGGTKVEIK
notes: IgG1 isotype
ELISA signal relative to background [3]: 7.95 | ELISA signal relative to background [4]: 1.64 | ELISA signal relative to background [5]: 3.61 | ELISA signal relative to background [6]: 0.84 | ELISA signal relative to background [7]: 0.73 | ELISA signal relative to background [8]: 1.25 | ELISA signal relative to background [9]: 0.77 | ELISA signal relative to background [10]: 28.6 | ELISA signal relative to background [11]: 1.18 | ELISA signal relative to background [12]: 4.23 | ELISA signal relative to background [13]: 1.5 | ELISA signal relative to background [14]: 0.84 | ELISA signal relative to background [15]: 0.8 | ELISA signal relative to background [16]: 0.82 | ELISA signal relative to background [17]: 30.6 | ELISA signal relative to background [18]: 8.86 | ELISA signal relative to background [19]: 1.59 | ELISA signal relative to background [20]: 0.86 | ELISA signal relative to background [21]: 1.77 | ELISA signal relative to background [22]: 1.89 | ELISA signal relative to background [23]: 29.8 | ELISA signal relative to background [24]: 3.2 | ELISA signal relative to background [25]: 31 | ELISA signal relative to background [26]: 1.95 | ELISA signal relative to background [27]: 0.77 | ELISA signal relative to background [28]: 28.7 | ELISA signal relative to background [29]: 29.7 | ELISA signal relative to background [30]: 1.95 | ELISA signal relative to background [31]: 0.68 | ELISA signal relative to background [32]: 1.23 | ELISA signal relative to background [33]: 0.82 | ELISA signal relative to background [34]: 0.77 | ELISA signal relative to background [35]: 1.82 | ELISA signal relative to background [36]: 30.1 | ELISA signal relative to background [37]: 26.4 | ELISA signal relative to background [38]: 0.77 | ELISA signal relative to background [39]: 29.7 | ELISA signal relative to background [40]: 1.89 | FXa amidolytic activity (relative to free FXa, fold) (human activated Factor X): 0.94 fold
